Reference: article PMC6071530, “The S100A4 Protein Signals through the ErbB4 Receptor to Promote Neuronal Survival” (Theranostics, 2018)
No end group written: not given here.

B1: Sulfo-SBED-S100A4 (natural protein)
chain: not shown
modifications: derivatized with sulfo-SBED (biotin label-transfer cross-linker); sites not stated
notes: S100A4 protein, human, recombinant; The same protein as m1, carrying the sulfo-SBED label for the label transfer cross-linking; also called sulfo-SBED-conjugated S100A4
B2: H3 peptide (S100A4-derived), tetramer on a lysine backbone (peptide)
peptide: KELLTRELPSFLGKRT
modifications: also: tetramer: four monomers coupled to a lysine backbone
notes: motif of S100A4 with high homology within the S100 family; Dendrimeric tetramer: four copies of the peptide on a lysine backbone; source: synthetic peptide (Schafer-N, Denmark)
B3: H6 peptide (S100A4-derived), tetramer on a lysine backbone (peptide)
peptide: NEFFEGFPDKQPRKK
modifications: also: tetramer: four monomers coupled to a lysine backbone
notes: low-homology ('unique') motif in the C-terminal of S100A4; Dendrimeric tetramer: four copies of the peptide on a lysine backbone; source: synthetic peptide (Schafer-N, Denmark)
B4: Recombinant human S100A4 (natural protein)
chain: not shown
notes: S100A4 protein, human, recombinant
B5: amphiregulin (ligand, UniProt P15514 101-187, looked up)
chain: SVRVEQVVKPPQNKTESENTSDKPKRKKKGGKNGKNRRNRKKKNPCNAEFQNFCIHGECKYIEHLEAVTCKCQQEYFGERCGEKSMK
notes: amphiregulin (AR), soluble, ligand of EGFR; also called AR; source: bought: R&D Systems (carrier free)

Columns and labels:
Details in all cases: both partners purified
[1] = target: T1, human extracellular ErbB1/Fc chimera (human, UniProt P00533 25-645); experiment: cross-linking; label transfer in solution: 100 nM Sulfo-SBED-conjugated protein with 50 nM Fc fusion or mouse IgG, 30 min in the dark at RT in TBS-Ca2+, UV 302 nm 5 min, precipitated with Protein A Dynabeads, reduced, biotin detected with streptavidin-HRP
T1 construct: ErbB1 (EGFR), human, extracellular part; also called EGFR; EGFR-Fc; source: bought: R&D Systems (carrier free)

[2] = target: T2, human extracellular ErbB3/Fc chimera (human, UniProt P21860 20-643); experiment: as above
T2 construct: ErbB3, human, extracellular part; also called Fc-conjugated ErbB3; source: bought: R&D Systems (carrier free)

[3] = target: T3, human extracellular ErbB4/Fc chimera (human, UniProt Q15303 26-651); experiment: as above
T3 construct: ErbB4, human, extracellular part; also called Fc-conjugated ErbB4; source: bought: R&D Systems (carrier free)
T3 sequence (looked up): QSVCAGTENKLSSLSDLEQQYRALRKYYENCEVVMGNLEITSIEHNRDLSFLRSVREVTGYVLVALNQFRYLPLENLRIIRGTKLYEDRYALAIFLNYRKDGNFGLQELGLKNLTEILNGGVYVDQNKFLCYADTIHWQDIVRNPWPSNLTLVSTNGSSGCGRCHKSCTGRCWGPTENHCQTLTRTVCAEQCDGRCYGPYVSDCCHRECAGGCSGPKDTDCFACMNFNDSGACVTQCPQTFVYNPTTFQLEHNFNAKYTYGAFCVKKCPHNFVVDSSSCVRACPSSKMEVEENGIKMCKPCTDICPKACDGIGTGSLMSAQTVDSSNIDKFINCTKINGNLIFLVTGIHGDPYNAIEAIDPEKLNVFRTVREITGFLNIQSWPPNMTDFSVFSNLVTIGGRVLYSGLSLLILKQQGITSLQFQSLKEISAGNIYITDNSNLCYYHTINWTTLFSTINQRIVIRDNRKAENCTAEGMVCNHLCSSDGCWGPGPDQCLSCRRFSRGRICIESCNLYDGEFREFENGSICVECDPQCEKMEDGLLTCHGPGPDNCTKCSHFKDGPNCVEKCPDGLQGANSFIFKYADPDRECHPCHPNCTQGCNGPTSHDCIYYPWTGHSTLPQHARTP

[4] = target: T1, human extracellular ErbB1/Fc chimera; experiment: SPR; BIAcore 2000; 2000 RU of ErbB/Fc chimera immobilized covalently on a CM4 chip; S100A4 or peptides as analyte; apparent affinities calculated from binding kinetics
[5] = target: T2, human extracellular ErbB3/Fc chimera; experiment: as above
[6] = target: T3, human extracellular ErbB4/Fc chimera; experiment: as above
Recombinant human S100A4 = target: B4; experiment: SPR; BIAcore 2000; 2000 RU of recombinant human S100A4 immobilized covalently on a CM4 chip; soluble AR or NRG as analyte
Chain of Recombinant human S100A4 (P26447 whole entry): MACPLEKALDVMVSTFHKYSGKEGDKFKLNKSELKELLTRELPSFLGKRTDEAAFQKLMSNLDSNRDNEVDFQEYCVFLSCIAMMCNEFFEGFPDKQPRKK

T2 sequence (P21860 20-643, change not shown): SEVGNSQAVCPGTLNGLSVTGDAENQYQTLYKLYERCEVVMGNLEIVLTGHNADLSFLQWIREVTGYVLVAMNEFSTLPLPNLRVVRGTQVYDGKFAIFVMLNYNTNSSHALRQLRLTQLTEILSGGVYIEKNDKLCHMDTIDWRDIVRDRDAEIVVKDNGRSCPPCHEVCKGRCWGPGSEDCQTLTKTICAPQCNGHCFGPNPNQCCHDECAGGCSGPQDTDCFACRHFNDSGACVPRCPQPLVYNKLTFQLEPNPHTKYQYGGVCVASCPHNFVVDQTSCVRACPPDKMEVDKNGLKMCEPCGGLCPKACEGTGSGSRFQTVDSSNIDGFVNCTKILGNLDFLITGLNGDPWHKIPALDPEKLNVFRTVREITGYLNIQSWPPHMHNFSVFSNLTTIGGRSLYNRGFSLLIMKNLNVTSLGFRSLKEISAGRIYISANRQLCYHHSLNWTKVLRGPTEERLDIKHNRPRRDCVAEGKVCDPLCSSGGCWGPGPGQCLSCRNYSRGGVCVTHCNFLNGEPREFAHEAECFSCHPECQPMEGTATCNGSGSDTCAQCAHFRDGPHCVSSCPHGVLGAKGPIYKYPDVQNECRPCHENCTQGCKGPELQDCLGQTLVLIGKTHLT

| Binder | binding result [1] | binding result [2] | binding result [3] | Kd [4] [nM] | Kd [5] [nM] | Kd [6] [nM] | Kd (Recombinant human S100A4) [nM] |
| --- | --- | --- | --- | --- | --- | --- | --- |
| B1 | binds | binds | binds |  |  |  |  |
| B2 |  |  |  | 107 ± 23.1 | 203 ± 46.7 | 199 ± 53.1 |  |
| B3 |  |  |  | 802 ± 114 | 62.3 ± 18.8 | 217 ± 19.9 |  |
| B4 |  |  |  | 21.4 ± 5.5 | 58 ± 30 | 66 ± 26.9 |  |
| B5 |  |  |  |  |  |  | 71.3 ± 12.3 |
